Data on 34 substances can be found in article PMC5623700.

Read-outs that look alike come from different tables or passages of the source.

The term Kd denotes a measure of binding affinity in units of concentration. Lower therefore signals a tighter complex.

Assay [1] has as its target recombinant human FcγRIIIa (human) (UniProt P08637). The experiment in a line: SPR; SPR imaging (IBIS MX96); biotinylated Fcγ receptors on a streptavidin G-Strep SensEye sensor, IgG injected; HBS pH 7.2/0.05% Tween-80; binding level at equilibrium (2 min) relative to a reference sample set to 100%; 50 and 250 μg/mL IgG1 (FcγRIIa, FcγRIIIa) or 250 and 1000 μg/mL (FcγRIIb, FcγRIIIb); corrected for decay of the surface. (SPR reads the build-up and loss of mass on a sensor chip optically.)
Sequence of UniProt P08637 (P08637 17-254): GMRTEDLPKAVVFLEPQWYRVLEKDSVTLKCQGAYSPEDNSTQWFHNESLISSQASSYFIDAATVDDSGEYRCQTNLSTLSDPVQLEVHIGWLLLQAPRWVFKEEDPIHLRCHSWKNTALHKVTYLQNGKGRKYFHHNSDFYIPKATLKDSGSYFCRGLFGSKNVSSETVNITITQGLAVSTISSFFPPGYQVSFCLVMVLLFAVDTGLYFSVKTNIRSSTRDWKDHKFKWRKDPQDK

Assay [2] concerns the target recombinant human FcγRIIIb (human) (UniProt O75015). The assay is described as above.
Sequence of UniProt O75015 (O75015 17-200): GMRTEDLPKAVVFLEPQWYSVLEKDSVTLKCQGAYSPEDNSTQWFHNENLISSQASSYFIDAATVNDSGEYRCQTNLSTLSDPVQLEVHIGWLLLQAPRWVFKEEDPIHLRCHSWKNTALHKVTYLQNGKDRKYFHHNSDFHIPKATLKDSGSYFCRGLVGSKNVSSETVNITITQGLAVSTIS
In assay [3] the target is recombinant human FcγRIIa (human) (UniProt P12318). The description is as above.
Sequence of UniProt P12318 (P12318 34-317): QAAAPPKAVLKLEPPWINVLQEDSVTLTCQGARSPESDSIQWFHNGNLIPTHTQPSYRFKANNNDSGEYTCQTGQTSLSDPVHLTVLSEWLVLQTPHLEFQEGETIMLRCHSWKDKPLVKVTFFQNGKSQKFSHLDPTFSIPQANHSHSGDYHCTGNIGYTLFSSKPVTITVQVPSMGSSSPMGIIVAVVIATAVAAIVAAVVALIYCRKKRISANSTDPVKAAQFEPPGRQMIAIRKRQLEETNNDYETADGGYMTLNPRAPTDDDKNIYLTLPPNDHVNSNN
For assay [4], the target named is recombinant human FcγRIIb (human) (UniProt P31994). The description is as above.
Sequence of UniProt P31994 (P31994 43-310): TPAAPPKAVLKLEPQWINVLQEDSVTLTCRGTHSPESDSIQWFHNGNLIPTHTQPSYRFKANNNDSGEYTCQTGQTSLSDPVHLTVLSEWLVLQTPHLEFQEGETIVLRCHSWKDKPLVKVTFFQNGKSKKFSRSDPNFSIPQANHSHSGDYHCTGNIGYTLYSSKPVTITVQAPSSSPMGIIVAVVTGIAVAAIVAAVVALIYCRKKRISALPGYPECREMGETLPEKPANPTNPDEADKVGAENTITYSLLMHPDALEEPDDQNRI
In assay [5] the target is human FcγRI with a C-terminal AVI-tag and C-terminal His-tag (Sino Biological) (human) (UniProt P12314). The experiment in a line: SPR; Biacore T200, single-cycle kinetics; biotinylated FcγRI captured on a CAPchip, IgG1 injected at 0.06-5 nM; HBS-EP+; 37 °C; 1:1 kinetic model; KD observed.
Sequence of UniProt P12314 (P12314 16-292): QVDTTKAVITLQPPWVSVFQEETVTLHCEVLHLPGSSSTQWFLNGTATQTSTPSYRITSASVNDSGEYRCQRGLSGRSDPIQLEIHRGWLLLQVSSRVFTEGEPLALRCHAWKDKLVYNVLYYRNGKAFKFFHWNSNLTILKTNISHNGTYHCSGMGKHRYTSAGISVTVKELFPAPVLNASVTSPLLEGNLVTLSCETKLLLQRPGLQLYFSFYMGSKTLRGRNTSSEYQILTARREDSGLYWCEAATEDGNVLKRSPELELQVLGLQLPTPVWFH
The target of assay [6] is human FcRn (human FCGRT & B2M heterodimer) (human) (UniProt P55899). In words: BLI; Octet Red384; FcRn amine-coupled to AR2G tips; 320 nM IgG1 associated at pH 6 and dissociated at pH 7.2; fraction bound 5 s after the start of dissociation (response at 0 s = 100%). On the technique in general: BLI is a label-free optical method that tracks binding on a fibre tip over time.

Assay [7] concerns the target human FcγRI with a C-terminal AVI-tag and C-terminal His-tag (Sino Biological) (human) (UniProt P12314). In words: SPR; Biacore T200, single-cycle kinetics; biotinylated FcγRI captured on a CAPchip, IgG1 injected at 0.06-5 nM; HBS-EP+; 37 °C; 1:1 kinetic model; KD observed. This is another data set of the same source.
The target of assay [8] is human FcRn (human FCGRT & B2M heterodimer) (human) (UniProt P55899). The experiment in a line: BLI; Octet Red384, multicycle kinetics; FcRn amine-coupled to AR2G tips, IgG1 2.5-80 nM; association and dissociation at pH 6 (50 mM phosphate, 150 mM NaCl, 0.1% Tween 20); heterogeneous ligand model; KD observed.
The target in assay [9] is T1, neonatal Fc receptor (FcRn), FCGRT + beta2-microglobulin heterodimer (UniProt P55899+P61769). In words: biolayer interferometry (Octet Red384), dissociation after a pH switch. The following applies: pH 7.2; 150 mM NaCl; association in 50 mM phosphate pH 6; dissociation in 50 mM phosphate pH 7.2 (Methods; Results and Discussion say pH 7.4).
T1 sequence (P55899 24-297, chain 1 of 2): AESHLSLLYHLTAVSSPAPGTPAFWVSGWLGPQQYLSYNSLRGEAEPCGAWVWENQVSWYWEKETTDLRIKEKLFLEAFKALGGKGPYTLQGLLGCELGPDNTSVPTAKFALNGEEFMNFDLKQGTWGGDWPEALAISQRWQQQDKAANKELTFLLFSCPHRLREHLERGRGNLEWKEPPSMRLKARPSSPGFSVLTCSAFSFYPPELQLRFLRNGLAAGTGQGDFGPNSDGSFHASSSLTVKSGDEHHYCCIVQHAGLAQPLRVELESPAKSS
T1 sequence (P61769 21-119, chain 2 of 2, further chain): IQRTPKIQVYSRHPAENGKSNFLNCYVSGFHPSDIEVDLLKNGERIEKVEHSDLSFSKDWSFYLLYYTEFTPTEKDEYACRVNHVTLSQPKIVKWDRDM
Assay [10] concerns the target T1, neonatal Fc receptor (FcRn), FCGRT + beta2-microglobulin heterodimer. Described as above. As to conditions: pH 7.2; 150 mM NaCl; association in 50 mM phosphate pH 6; dissociation in 50 mM phosphate pH 7.2 (Methods; Results and Discussion say pH 7.4). This is another data set of the same source.
In assay [11] the target is human FcRn (human FCGRT & B2M heterodimer) (human) (UniProt P55899). In words: BLI; Octet Red384, multicycle kinetics; FcRn amine-coupled to AR2G tips, IgG1 2.5-80 nM; association and dissociation at pH 6 (50 mM phosphate, 150 mM NaCl, 0.1% Tween 20); heterogeneous ligand model; KD observed. The source holds these as a separate data set.
[12] abbreviates: stress condition 40 °C‐1000 r.p.m._24 h.
The mark [13] stands for this setting: stress condition 40 °C‐1000 r.p.m._48 h.

For “human IgG1 heated to 70 °C for 15 min at 300 r.p.m. (antibody)”, the relative binding (% of reference) in [1] worked out at 72.7%; in assay [2] it was 127%; in [3], 62.5%; in assay [4], 93.4%.
In turn, “covalent dimer fraction of IgG1 (DSS cross-linked, preparative SEC) (antibody)” showed a dissociation constant (Kd) in assay [5] of 0.08 nM. Also, the fraction bound at neutral pH in assay [6] is 17.3%.
Turning to “human IgG1 after accelerated asparagine deamidation at pH 8 (antibody)”, the fraction bound at neutral pH in assay [6] (stress condition pH8.0_48 h) was found to be 7.8%; in assay [6] (stress condition pH8.0_72 h), 6.5%.
In the case of “human IgG1 kept at 40 °C in HBS buffer pH 7.2 (control of the deamidation stress) (antibody)”, the Kd in assay [7] (stress condition pH7.2_48 h) worked out at 0.59 nM; in assay [7] (stress condition pH7.2_72 h), 0.48 nM; in assay [7] (stress condition pH7.2_96 h) it was 0.58 nM; in assay [8] (stress condition pH7.2_48 h), 5.5 nM; in [8] (stress condition pH7.2_72 h) it was 6.1 nM; in assay [8] (stress condition pH7.2_96 h), 5.6 nM. Further, in assay [6], the fraction bound at neutral pH amounted to 7.6%.
For human IgG1, deamidated pH8.0_96 h, the Fraction bound (5 s after start of dissociation at neutral pH) in assay [9] turned out to be 10%.
On the same count and under the same terms, in the case of human IgG1, 40 °C-1000 r.p.m._24 h it was 7.9%; in that of human IgG1, deamidated pH8.0_48 h, 7.8%.
The same measure, in the same setting: in the case of human IgG1, H2O2_0.25% oxidised it was 6.4%.
In the case of “human IgG1 monoclonal antibody, reference (unstressed)”, the Fraction bound (5 s after start of dissociation at neutral pH) in [9] amounted to 8.3%; in assay [10], 7.5%.
Turning to “human IgG1, DG 100 (fully deglycosylated with PNGase F)”, the Fraction bound (5 s after start of dissociation at neutral pH) in [9] was 4.1%.
Same read-out and setting: the figure for human IgG1, AF 3 (3% afucosylated) is 14.3%.
Consider human IgG1, pH7.2_48 h control, for which the Fraction bound (5 s after start of dissociation at neutral pH) in [9] is 7.6%.
As to “human IgG1 with 8% afucosylation (antibody)”, the dissociation constant (Kd) was 0.43 nM in [7] and 3.7 nM in assay [8].
As for “human IgG1 with 3% afucosylation (antibody)”, the figures for the equilibrium dissociation constant (Kd) in assay [7] and in [8] were 0.44 nM and 3.7 nM, respectively. In [6], this substance yielded a fraction bound at neutral pH of 14.3%. The relative binding (% of reference) was determined as 79.7% in assay [1], 83.9% in assay [2], 102% in assay [3] and 90.6% in assay [4].
With human IgG1, pH7.2_96 h control, the Fraction bound (5 s after start of dissociation at neutral pH) in assay [9] stood at 7.9%.
In the case of “human IgG1, 0% deglycosylated control of the deglycosylation (antibody)”, the dissociation constant Kd worked out at 0.52 nM in assay [7] and 4.9 nM in assay [8].
Turning to human IgG1, pH7.2_72 h control, the Fraction bound (5 s after start of dissociation at neutral pH) in assay [9] came out at 8.3%.
On the same count and under the same terms, in the case of human IgG1, AF 70 (70% afucosylated) it was 15.7%.
Consider “human IgG1 heated to 75 °C for 15 min at 300 r.p.m. (antibody)”, for which the relative binding (% of reference) in [1] is 389%; in assay [2], more than 1000%; in assay [3] it was more than 1000%; in [4], more than 1000%.
Regarding “human IgG1 after accelerated methionine oxidation with H2O2 (antibody)”, the Kd in assay [7] (stress condition H2O2_0.1%) was found to be 0.93 nM; in assay [7] (stress condition H2O2_0.25%), 0.53 nM; in [7] (stress condition H2O2_0.5%), 0.42 nM; in assay [8], 6.2 nM. In addition, the fraction bound at neutral pH in assay [6] stood at 6.4%.
For the substance human IgG1, 40 °C-1000 r.p.m._72 h, in assay [9], the Fraction bound (5 s after start of dissociation at neutral pH) came out at 8.6%.
Still for that read-out and setting: the figure for human IgG1, 1 freeze/thaw cycle is 8.4%.
With “human IgG1 with 70% afucosylation (antibody)”, the figures for the dissociation constant (Kd) in assay [7] and in assay [8] were 0.33 nM and 3.8 nM, respectively. The substance further displayed a fraction bound at neutral pH in [6] of 15.7%. Also, the relative binding (% of reference) in assay [1] came to 159%; in assay [2], 186%; in assay [3], 104%; in assay [4], 110%.
As for “fully deglycosylated human IgG1 (PNGase F) (antibody)”, the maximum response in [7] worked out at 5 RU. Moreover, the Kd in assay [8] was determined as 6.3 nM.
“human IgG1 after thermal/shake stress at 40 °C and 1000 r.p.m. (antibody)”: the Kd in assay [7] (setting [12]) was 0.53 nM; in assay [7] (setting [13]), 0.45 nM; in assay [8] (setting [12]), 5.5 nM; in assay [8] (setting [13]), 5 nM; in [8] (stress condition 40 °C‐1000 r.p.m._72 h) it was 5.4 nM. For the same substance, the fraction bound at neutral pH in assay [6] (setting [12]) stood at 7.9%; in assay [6] (setting [13]), 7.3%.
As to “human IgG1, DG 0 (glycosylated control of the deglycosylation experiment)”, the Fraction bound (5 s after start of dissociation at neutral pH) in assay [9] was found to be 8.5%.
The same measure, in the same setting: in the case of human IgG1, 5 freeze/thaw cycles it was 8.1%.
“human IgG1, monomer fraction of the DSS cross-linking preparation”: in assay [10], the Fraction bound (5 s after start of dissociation at neutral pH) was found to be 8.9%.
On to human IgG1, H2O2_0.5% oxidised, for which the Fraction bound (5 s after start of dissociation at neutral pH) in assay [9] turned out to be 7.7%.
The same measure, in the same setting: the figure for human IgG1, 40 °C-1000 r.p.m._48 h is 7.3%.
For the substance “monomer fraction of the DSS-treated IgG1 sample (preparative SEC) (antibody)”, the Kd in assay [5] is 0.52 nM; in assay [11] it was 7 nM. This substance had a fraction bound at neutral pH in assay [6] of 8.9%.
For the substance human IgG1, 10 freeze/thaw cycles, the Fraction bound (5 s after start of dissociation at neutral pH) in [9] worked out at 7.4%.
The same measure, in the same setting: in the case of human IgG1, deamidated pH8.0_72 h it was 6.5%.
As to “human IgG1 after repeated freeze/thaw cycles (antibody)”, the fraction bound at neutral pH amounted to 8.4% in assay [6] (stress condition F‐T 1), 8.1% in assay [6] (stress condition F‐T 5) and 7.4% in [6] (stress condition F‐T 10). The Kd worked out at 5.7 nM in assay [8] (stress condition F‐T 1) and 5.2 nM in assay [8] (stress condition F‐T 10). The relative binding (% of reference) is 80.1% in [1] (stress condition F‐T 1); 103% in assay [1] (stress condition F‐T 5); 98.7% in assay [1] (stress condition F‐T 10); 106% in assay [2] (stress condition F‐T 1); 105% in [2] (stress condition F‐T 5); 102% in assay [2] (stress condition F‐T 10). The relative binding (% of reference) in assay [3] (stress condition F‐T 1) was 102%; in assay [3] (stress condition F‐T 5) it was 92.3%; in assay [3] (stress condition F‐T 10), 85.9%; in assay [4] (stress condition F‐T 1) it was 102%; in assay [4] (stress condition F‐T 5), 97.2%; in [4] (stress condition F‐T 10), 95.9%.
